# Reference: US11987606 (Johns Hopkins, dated 2024)
# B1: Kb(Ova)/ANXA5 (peptide-MHC)
# chain: SIINFEKLGGGASGGGGSGGGGSIQKTPQIQVYSRHPPENGKPNILNCYVTQFHPPHIEIQMLKNGKKIPKVEMSDMSFSKDWSFYILAHTEFTPTETDTYACRVKHASMAEPKTVYWDRDMGGGGSGGGGSGGGGSGGGGSGPHSLRYFVTAVSRPGLGEPRYMEVGYVDDTEFVRFDSDAENPRYEPQAPWMEQEGPEYWERETQKAKGNEQSFRVDLRTLLGYYNQSKGGSHTIQVISGCEVGSDGRLLRGYQQYAYDGCDYIALNEDLKTWTAADMAALITKHKWEQAGEAERLRAYLEGTCVEWLRRYLKNGNATLLRTDSPKAHVTHHSRPEDKVTLRCWALGFYPADITLTWQLNGEELIQDMELVETRPAGDGTFQKWASVVVPLGKEQYYTCHVYHQGLPEPLTLRWEPPPSTRSMAQVLRGTVTDFPGFDERADAETLRKAMKGLGTDEESILTLLTSRSNAQRQEISAAFKTLFGRDLLDDLKSELTGKFEKLIVALMKPSRLYDAYELKHALKGAGTNEKVLTEIIASRTPEELRAIKQVYEEEYGSSLEDDVVGDTSGYYQRMLVVLLQANRDPDAGIDEAQVEQDAQALFQAGELKWGTDEEKFITIFGTRSVSHLRKVFDKYMTISGFQIEETIDRETSGNLEQLLLAVVKSIRSIPAYLAETLYYAMKGAGTDDHTLIRVMVSRSEIDLFNIRKEFRKNFATSLYSMIKGDTSGDYKKALLLLCGEDD
# Target: T cell receptor of Ova-specific CD8+ T cells (OT-I), on OT-I cells (mouse)
# Experiment: cell-based or functional assay
binder,measurement,value
B1,IFN-γ expression of OT-I cells (flow cytometry); potency relative to dimeric Kb(Ova)/Fc,> 100 fold
same,"IFN-γ expression of resting or naïve OT-I cells after 12 hours (flow cytometry); potency by minimal dose of antigen required to detect activation, relative to monomeric Kb(Ova)",> 1000 fold
